B1: p75NTR (p75 neurotrophin receptor): N32D (protein)
parent chain: MRRAGAACSAMDRLRLLLLLILGVSSGGAKETCSTGLYTHSGECCKACNLGEGVAQPCGANQTVCEPCLDNVTFSDVVSATEPCKPCTECLGLQSMSAPCVEADDAVCRCAYGYYQDEETGHCEACSVCEVGSGLVFSCQDKQNTVCEECPEGTYSDEANHVDPCLPCTVCEDTERQLRECTPWADAECEEIPGRWIPRSTPPEGSDSTAPSTQEPEVPPEQDLVPSTVADMVTTVMGSSQPVVTRGTTDNLIPVYCSILAAVVVGLVAYIAFKRWNSCKQNKQGANSRPVNQTPPPEGEKLHSDSGISVDSQSLHDQQTHTQTASGQALKGDGNLYSSLPLTKREEVEKLLNGDTWRHLAGELGYQPEHIDSFTHEACPVRALLASWGAQDSATLDALLAALRRIQRADIVESLCSESTATSPV

Tests used:
[1] = steady-state domain-selective surface biotinylation, immunoblot; conditions: glycan lost; control: ΔBS p75NTR
[2] = pulse-chase, ER-to-Golgi transport by O-glycan acquisition; conditions: glycan lost; control: native rat p75NTR

Row | Molecule | localisation_or_trafficking, other: percent apical [1] | localisation_or_trafficking, other: half-time of ER-to-Golgi transport [2]
1 | p75NTR (p75 neurotrophin receptor): N32D/ΔBS | no change, <10 vs <10 | –
2 | B1 | – | no change, 35–40 vs 35–40
